From patent US20140120543A1 (INSTITUTE GUSTAVE ROUSSY, published 2014)

T1: DNA repair endonuclease XPF (human, UniProt Q92889 1-916)
T1 construct: Endogenous protein of the human A549 cell line, inside fixed cells; also called encoded by the ERCC4 gene
T1 sequence: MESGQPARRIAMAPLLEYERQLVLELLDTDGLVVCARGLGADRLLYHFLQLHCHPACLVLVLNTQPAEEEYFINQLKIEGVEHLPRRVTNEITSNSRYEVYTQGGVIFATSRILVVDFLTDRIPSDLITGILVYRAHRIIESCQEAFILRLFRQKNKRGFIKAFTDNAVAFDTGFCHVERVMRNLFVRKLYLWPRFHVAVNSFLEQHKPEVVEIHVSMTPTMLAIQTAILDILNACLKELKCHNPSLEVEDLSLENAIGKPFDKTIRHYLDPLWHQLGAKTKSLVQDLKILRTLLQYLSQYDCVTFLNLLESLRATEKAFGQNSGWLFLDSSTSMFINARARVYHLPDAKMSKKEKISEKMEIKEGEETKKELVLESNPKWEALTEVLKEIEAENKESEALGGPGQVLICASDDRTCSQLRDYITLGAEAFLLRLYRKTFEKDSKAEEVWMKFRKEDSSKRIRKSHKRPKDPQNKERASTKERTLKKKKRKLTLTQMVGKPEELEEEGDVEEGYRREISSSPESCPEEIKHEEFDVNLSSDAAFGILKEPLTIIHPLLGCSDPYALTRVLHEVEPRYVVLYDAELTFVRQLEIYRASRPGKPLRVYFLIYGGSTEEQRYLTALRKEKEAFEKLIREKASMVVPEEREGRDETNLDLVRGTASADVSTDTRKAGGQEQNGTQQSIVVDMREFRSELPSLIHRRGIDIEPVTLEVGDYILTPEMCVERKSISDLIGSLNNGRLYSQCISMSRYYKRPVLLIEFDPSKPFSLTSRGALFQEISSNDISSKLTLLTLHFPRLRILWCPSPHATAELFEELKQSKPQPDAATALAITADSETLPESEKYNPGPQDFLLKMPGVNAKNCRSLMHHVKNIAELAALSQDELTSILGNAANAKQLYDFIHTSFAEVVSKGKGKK

T2: kinesin Eg5 (human, UniProt P52732 1-1056)
T2 construct: Endogenous protein of the human A549 cell line, inside fixed cells; also called encoded by the KIF11 gene
T2 sequence: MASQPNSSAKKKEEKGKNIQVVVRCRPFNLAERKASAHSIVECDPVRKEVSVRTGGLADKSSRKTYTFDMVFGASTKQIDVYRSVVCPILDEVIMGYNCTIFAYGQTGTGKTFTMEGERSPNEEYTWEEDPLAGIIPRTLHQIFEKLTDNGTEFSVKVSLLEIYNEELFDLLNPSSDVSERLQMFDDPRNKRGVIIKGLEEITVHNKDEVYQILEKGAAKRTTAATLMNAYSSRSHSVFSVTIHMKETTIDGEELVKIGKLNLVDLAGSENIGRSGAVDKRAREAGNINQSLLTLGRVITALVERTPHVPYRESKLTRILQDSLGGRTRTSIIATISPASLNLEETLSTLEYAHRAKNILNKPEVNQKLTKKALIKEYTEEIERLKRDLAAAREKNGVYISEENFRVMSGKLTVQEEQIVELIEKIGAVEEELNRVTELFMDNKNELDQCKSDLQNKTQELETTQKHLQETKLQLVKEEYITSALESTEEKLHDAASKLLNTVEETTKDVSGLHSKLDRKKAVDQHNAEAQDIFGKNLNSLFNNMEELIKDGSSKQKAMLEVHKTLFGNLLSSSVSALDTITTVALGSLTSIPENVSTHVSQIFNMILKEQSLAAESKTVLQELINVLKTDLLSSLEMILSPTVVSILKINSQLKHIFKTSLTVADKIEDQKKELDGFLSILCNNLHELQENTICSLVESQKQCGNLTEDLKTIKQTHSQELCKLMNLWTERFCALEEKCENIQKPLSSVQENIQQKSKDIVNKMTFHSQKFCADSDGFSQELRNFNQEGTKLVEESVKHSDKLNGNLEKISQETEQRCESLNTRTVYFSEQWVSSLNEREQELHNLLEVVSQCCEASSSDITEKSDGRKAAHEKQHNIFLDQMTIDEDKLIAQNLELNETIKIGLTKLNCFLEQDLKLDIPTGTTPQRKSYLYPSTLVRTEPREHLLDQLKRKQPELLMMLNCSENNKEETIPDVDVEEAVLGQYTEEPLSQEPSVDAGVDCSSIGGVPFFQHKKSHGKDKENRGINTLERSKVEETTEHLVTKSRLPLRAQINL

T3: Fanconi anemia Group G protein FANC G (human, UniProt O15287 1-622)
T3 construct: Endogenous protein of the human A549 cell line, inside fixed cells; also called Fanconi anemia complementation group G
T3 sequence: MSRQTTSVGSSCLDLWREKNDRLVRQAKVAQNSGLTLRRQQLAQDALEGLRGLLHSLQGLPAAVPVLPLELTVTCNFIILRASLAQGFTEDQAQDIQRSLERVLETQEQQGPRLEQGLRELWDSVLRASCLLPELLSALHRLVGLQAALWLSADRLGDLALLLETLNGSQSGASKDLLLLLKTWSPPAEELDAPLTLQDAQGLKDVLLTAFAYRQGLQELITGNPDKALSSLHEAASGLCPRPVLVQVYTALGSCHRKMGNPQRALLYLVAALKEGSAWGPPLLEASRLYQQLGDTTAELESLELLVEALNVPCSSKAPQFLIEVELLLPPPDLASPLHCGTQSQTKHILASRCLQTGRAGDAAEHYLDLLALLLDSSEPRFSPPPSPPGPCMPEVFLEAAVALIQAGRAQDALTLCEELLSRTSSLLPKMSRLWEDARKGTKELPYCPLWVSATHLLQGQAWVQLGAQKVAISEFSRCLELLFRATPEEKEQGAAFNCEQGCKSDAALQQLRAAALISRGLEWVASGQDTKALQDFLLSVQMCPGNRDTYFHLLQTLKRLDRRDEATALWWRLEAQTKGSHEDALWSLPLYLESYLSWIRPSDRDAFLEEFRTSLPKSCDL

T4: protein TRF2 (telomeric repeat-binding factor 2) (human, UniProt Q15554 1-542)
T4 construct: Endogenous protein of the human A549 cell line, inside fixed cells; also called encoded by the TERF2 gene
T4 sequence: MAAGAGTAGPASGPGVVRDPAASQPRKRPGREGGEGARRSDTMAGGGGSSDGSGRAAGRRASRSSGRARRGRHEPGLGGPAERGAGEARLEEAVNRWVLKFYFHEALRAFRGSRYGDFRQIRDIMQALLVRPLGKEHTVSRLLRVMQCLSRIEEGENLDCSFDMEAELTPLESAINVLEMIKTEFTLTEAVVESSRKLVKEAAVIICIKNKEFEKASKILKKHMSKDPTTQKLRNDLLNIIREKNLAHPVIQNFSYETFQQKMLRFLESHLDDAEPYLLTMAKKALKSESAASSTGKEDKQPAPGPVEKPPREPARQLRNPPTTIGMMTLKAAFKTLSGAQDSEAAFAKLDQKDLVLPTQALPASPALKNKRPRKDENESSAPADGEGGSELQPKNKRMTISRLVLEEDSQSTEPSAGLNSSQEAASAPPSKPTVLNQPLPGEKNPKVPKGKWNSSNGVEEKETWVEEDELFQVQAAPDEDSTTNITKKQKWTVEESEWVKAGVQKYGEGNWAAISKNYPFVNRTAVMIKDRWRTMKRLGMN

B1: ERCC1-204 isoform (other)
chain: MDPGKDKEGVPQPSGPPARKKFVIPLDEDEVPPGVRGNPVLKFVRNVPWEFGDVIPDYVLGQSTCALFLSLRYHNLHPDYIHGRLQSLGKNFALRVLLVQVDVKDPQQALKELAKMCILADCTLILAWSPEEAGRYLETYKAYEQKPADLLMEKLEQDFVSRVTECLTTVKSVNKTDSQTLLTTFGSLEQLIAASREDLALCPGLGPQKARRLFDVLHEPFLKVP
notes: Re-expressed in ERCC1-deficient A549 clone 216; Detected inside fixed, permeabilised cells by PLA; also called isoform 204
B2: ERCC1-201 isoform (other)
chain: MDPGKDKEGVPQPSGPPARKKFVIPLDEDEVPPGVAKPLFRSTQSLPTVDTSAQAAPQTYAEYAISQPLEGAGATCPTGSEPLAGETPNQALKPGAKSNSIIVSPRQRGNPVLKFVRNVPWEFGDVIPDYVLGQSTCALFLSLRYHNLHPDYIHGRLQSLGKNFALRVLLVQVDVKDPQQALKELAKMCILADCTLILAWSPEEAGRYLETYKAYEQKPADLLMEKLEQDFVSRVTECLTTVKSVNKTDSQTLLTTFGSLEQLIAASREDLALCPGLGPQKVRALGKNPRSWGKERAPNKHNLRPQSFKVKKEPKTRHSGFRL
notes: Re-expressed in ERCC1-deficient A549 clone 216; Detected inside fixed, permeabilised cells by PLA; also called isoform 201
B3: ERCC1-203 isoform (other)
chain: MDPGKDKEGVPQPSGPPARKKFVIPLDEDEVPPGVAKPLFRSTQSLPTVDTSAQAAPQTYAEYAISQPLEGAGATCPTGSEPLAGETPNQALKPGAKSNSIIVSPRQRGNPVLKFVRNVPWEFGDVIPDYVLGQSTCALFLSLRYHNLHPDYIHGRLQSLGKNFALRVLLVQVDVKDPQQALKELAKMCILADCTLILAWSPEEAGRYLETYKAYEQKPADLLMEKLEQDFVSRSLEQLIAASREDLALCPGLGPQKARRLFDVLHEPFLKVP
notes: Re-expressed in ERCC1-deficient A549 clone 216; Detected inside fixed, permeabilised cells by PLA; also called isoform 203
B4: ERCC1-202 isoform (isoform 202 of the ERCC1 protein) (other)
chain: MDPGKDKEGVPQPSGPPARKKFVIPLDEDEVPPGVAKPLFRSTQSLPTVDTSAQAAPQTYAEYAISQPLEGAGATCPTGSEPLAGETPNQALKPGAKSNSIIVSPRQRGNPVLKFVRNVPWEFGDVIPDYVLGQSTCALFLSLRYHNLHPDYIHGRLQSLGKNFALRVLLVQVDVKDPQQALKELAKMCILADCTLILAWSPEEAGRYLETYKAYEQKPADLLMEKLEQDFVSRVTECLTTVKSVNKTDSQTLLTTFGSLEQLIAASREDLALCPGLGPQKARRLFDVLHEPFLKVP
notes: Re-expressed in ERCC1-deficient A549 clone 216; Detected inside fixed, permeabilised cells by PLA, not on the cell surface

Assays:
[1] = molecular target: T1, DNA repair endonuclease XPF; experiment: proximity ligation assay (Duolink) in ERCC1-deficient A549 cells re-expressing one isoform
Description: (§1) Protein interactions were studied using the Duolink II proximity ligation assays (PLA) kit (Olink, Uppsala, Sweden). Coverslips were processed according to the manufacturer's instructions. In brief, the cells were fixed with methanol, permeabilized with triton, stained with the primary antibodies, and then incubated with the secondary oligonucleotide-linked antibodies. The oligonucleotides were hybridized, ligated, amplified, and detected using a fluorescent probe.
Using proximity ligation assays (PLA-Duolink) technology, we investigated the binding ability of ERCC1 isoforms with ERCC1 interacting proteins.

kinesin Eg5 = molecular target: T2, kinesin Eg5; experiment: proximity ligation assay (Duolink), ERCC1 detected with FL297 antibody
Description: (§2) ERCC1 was detected using FL297 antibody.
as §1

[2] = molecular target: T3, Fanconi anemia Group G protein FANC G; experiment: as above
Description: as §2, §1

[3] = molecular target: T4, protein TRF2 (telomeric repeat-binding …); experiment: as above
Description: as §2, §1

Row | Binder | binding result [1] | binding result (kinesin Eg5) | binding result [2] | binding result [3]
1 | B1 | no binding | – | – | –
2 | B2 | no binding | – | – | –
3 | B3 | no binding | – | – | –
4 | B4 | – | binds | binds | binds
